Data taken from the DeepSol protein solubility set.

test: soluble on expression in E. coli; label from the status in PepcDB or PDB records

Sequence | soluble on expression in E. coli
CATGTRQSPINIQWKDSVYDPQLAPLRVSYDAASCRYLWNTGYAFQVEFDDSCEDSGISGGPLGNHYRLKQFHFHWGATDEWGSEHAVDGHTYPAELHLVHWNSTKYENCKKASVGENGLAVIGVFLKLGAHHQALQKLVDVLPEVRHKDTQVAMGPFDPSCLMPACRDYWTYPGSLTTPPLAESVTWIVQKTPVEVSPSQLSMFRTLLFSGRGEEEDVMVNNYRPLQPLRDRKLRSSFRLDRTKMRS | soluble
SDLFTDGDIFQDIVDAACKRRVPVYIILDEGGVKYFLEMCQGLELADFRIRNIRVRSVTGIGFYMPMGKIKGTLSSKFLMVDGDKVATGSFSFTWSSSYVDRNLLLLLTGQNMEPFDIEFRELYAISEEVNLHQHLGLAGRIGLNYSSTVARKLINPKYALVAGTRRPPGEMMRWAARQQREAGGNVEGQEEGSGGGESARRLESFLNDLVTVEQILPTVEPISPRLQRPTNGRPVSHAHTDAKHRSREALPQNGKGEAANGEATPAKEGKRFSSRLFSRRVKRPAVPSSMASSPSTETFADVEFPLGKRHNEGSNANISGKGITKASNCVIS | soluble
MAQTTLIKNVNGYTFTDNSLTQFSAISFTDDIINKVYPIGAVLPASKGVIVIDGQGQTMLPGLIDAHGHVIGYGHSLEHHHHHH | not soluble
VSELRLMAVHAHPDDESSKGAATLARYADEGHRVLVVTLTGGERGEILNPAMDLPDVHGRIAEIRRDEMTKAAEILGVEHTWLGFVDSGLPKGDLPPPLPDDCFARVPLEVSTEALVRVVREFRPHVMTTYDENGGYPHPDHIRCHQVSVAAYEAAGDFCRFPDAGEPWTVSKLYYVHGFLRERMQMLQDEFARHGQRGPFEQWLAYWDPDHDFLTSRVTTRVECSKYFSQRDDALRAHATQIDPNAEFFAAPLAWQERLWPTEEFELARSRIPARPPETELFAGIEP | soluble
MNSRQQTILQMVIDQGQVSVTDLAKATGVSEVTIRQDLNTLEKLSYLRRAHGFAVSLDSDDVETRMMSNYTLKRELAEFAASLVQPGETIFIENGSSNALLARTLGEQKKNVTIITVSSYIAHLLKDAPCEVILLGGVYQKKSESMVGPLTRQCIQQVHFSKAFIGIDGWQPETGFTGRDMMRTDVVNAVLEKECEAIVLTDSSKFGAVHSYSIGPVERFNRVITDSKIRASDLMHLEHSKLTIHVVDILEHHHHHH | soluble
YRENDPRLQLAFKLFLDGCTDKEVEQQTGINRRTFRRYRMKYGITNSLRHKND | not soluble
MAKLRVGIVFGGKSAEHEVSLQSAKNIVDAIDKTRFDVVLLGIDKAGQWHVNDAENYLQNADDPAHIALRPSAISLAQVPGKHQHQLINAQNGQPLPTVDVIFPIVHGTLGEDGSLQGMLRVANLPFVGSDVLSSAACMDKDVAKRLLRDAGLNIAPFITLTRTNRHAFSFAEVESRLGLPLFVKPANQGSSVGVSKVANEAQYQQAVALAFEFDHKVVVEQGIKGREIECAVLGNDNPQASTCGEIVLNSEFYAYDTKYIDDNGAQVVVPAQIPSEVNDKIRAIAIQAYQTLGCAGMARVDVFLTADNEVVINEINTLPGFTNISMYPKLWQASGLGYTDLISRLIELALERHTANNALKTTM | soluble
METACERLHVAQETQMQLIEKSSDKLQDHILYWTAVRTENTLLYAARKKGVTVLGHCRVPHSVVCQERAKQAIEMQLSLQELSKTEFGDEPWSLLDTSWDRYMSEPKRCFKKGARVVEVEFDGNASNTNWYTVYSNLYMRTEDGWQLAKAGADGTGLYYCTMAGAGRIYYSAFGDEAARFSTTGHYSVRDQDRVYAGVSSTSSDFRDRP | soluble
MAHHHHHHMTNLNVESGYFNDELKEEANEANFMYTNISMLIRAHRKDRNKLTLQNKKLNLIKIVGFVLAIEEKKEFIVYTVDDSTGYIKAKLLLTYSYSACNDKNEDIKVDDMVQIFGICNTVSINEDLTISISSINKVNSLNHLCHHHLLVFHNYLKFLETQKKNLALEDERAKNEEDEIAPHVPTNDNPFFNSFFY | not soluble
MACTAADVVEEDLMSDRIANAQLRGKVMSAEEAAQFVNHGDKVGVSGFTGAGYPKALPTAIAERAKEAHARGDEYMIDLFTGASTAPDCDGVLAEADALRFRTPYQSDPILRSKINDGTTLYADYHLSESGIYVEQGFFGQMNVAIVEAVRITEEGHIVPSSSVGNNVEYLDNAEKIIIEVNSWQSEELEGMADIYRMNKLPNRQPIPITEAGQRIGTTYIDIDLSKVVAVVETDAPDRNAPFKPLDETSKQIAGHFLDFLEGEVAAGRLTYDGYVMQSGVGNVPNAVMAGLLDSKFENIKAYTEVIQDGMVDLIDAGKMTVASATSFSLSPEYAERMNAEAKNYAQKIILRPQQISNHPEVVRRLGLICTNGLIEADIYGNVNSTNVTGSRMMNGVGGSADFTRNGFISSFITPSVAKGGDISAFVPFVSHVDHTEQDVKVLISEYGYADLRGLAPRQRVEKIIAIAHPDYRPLLQDYYDRALAFAKEKKIMQTPHLLGEALSFHQRFQETGSMKK | not soluble
MGSDKIHHHHHHMRRLLTGCLLSSARPLKSRLPLLMSSSLPSSAGKKPKQATLARFFTSMKNKPTEGTPSPKKSSKHMLEDRMDNVSGEEEYATKKLKQTAVTHTVAAPSSMGSNFSSIPSSAPSSGVADSPQQSQRLVGEVEDALSSNNNDHYSSNIPYSEVCEVFNKIEAISSRLEIIRICSDFFIKIMKQSSKNLIPTTYLFINRLGPDYEAGLELGLGENLLMKTISETCGKSMSQIKLKYKDIGDLGEIAMGARNVQPTMFKPKPLTVGEVFKNLRAIAKTQGKDSQLKKMKLIKRMLTACKGIEAKFLIRSLESKLRIGLAEKTVLISLSKALLLHDENREDSPDKDVPMDVLESAQQKIRDAFCQVPNYEIVINSCLEHGIMNLDKYCTLRPGIPLKPMLAKPTKAINEVLDRFQGETFTSEYKYDGERAQVHLLNDGTMRIYSRNGENMTERYPEINITDFIQDLDTTKNLILDCEAVAWDKDQGKILPFQVLSTRKRKDVELNDVKVKVCLFAFDILCYNDERLINKSLKERREYLTKVTKVVPGEFQYATQITTNNLDELQKFLDESVNHSCEGLMVKMLEGPESHYEPSKRSRNWLKLKKDYLEGVGDSLDLCVLGAYYGRGKRTGTYGGFLLGCYNQDTGEFETCCKIGTGFSDEMLQLLHDRLTPTIIDGPKATFVFDSSAEPDVWFEPTTLFEVLTADLSLSPIYKAGSATFDKGVSLRFPRFLRIREDKGVEDATSSDQIVELYENQSHMQN | not soluble
MGSDKIHHHHHHMNMAQVAVALAKLAGIRKALDLALNDDHKKAGRLPIQNFLIEEVGRYFTGAATQLSILKKELPDLFGDFVEMPVEPKTEMAKTSTEGAAQYRYARSQLEVLARDIDQIFELRANSELAPPLIAAATTRRVFISHGRAPDWREVQAYVEKDIGLPTLELAQEPNQGRTILAKLMEASGQCDSAVIVMTGDDLDAAGQARARENVIHEIGFFQGKYGLGRVCLLHEEGVSIPSNIHGLVYTPFPKGMVSACFGVLTRELKAFY | not soluble
MFGKTLLRRIACSNLNLKSRKLSGKPRLAIVGSGPAGMFACNGLLRKSNFSVDVFENSPVPFGLVRYGVAPDHQEVKNVINTFDAMFEKNRERLKLFCNVNIGRDITFDELTRGYDAVLLAYGSYKTRTLDIPGSDASNVISGSEFVGWYNGVPNASTPDLTTSNVVIVGNGNVALDCARVLSTASSGLLRISDIPGDRLNVLEGANVKDIKILGRRGPEHVSFTIKELREQFKIKDWDSKLEISEIDAKNLTESLPKLERKKKRLTEVLVKNIGIANGLRQCHFIFHRIPEKIIADSNGKVQEIIVKNNETGQEETYPCGLLIYSIGYQTLVLDGVPQNDKKMIDMKDHCRVNMVAACSSQVYATGWCAHGPHGIIVDTQQQSIFVADQIAADFAQFKDSTSNGVEELLEDRKVPFISWDEWKQIDRQEQDTGKLSGKIREKFTTFEKFLTKLKKCN | not soluble
MKEKEKIYRHLTEEEISVLEGNYCQCADWTMVEVADGFDANRCLHVMFSGQIRIGSTRGSHLLPGGLHVPTGINIARLHNCIVGDEVVIFHVNSYLANYRIGDYTRIENIDTIAVTESTSFGNGVEVTVLNETGGREVTITDNLTAQTAYLMAMYRHDKVLTESLAAMARAYAESRRSDMGAIGSHVVIHGCNTIENVCIGDYTEITGASHLCNGSINSKKEAPVSVGYNVVCRDFILCSGSSVTDGATVSHCFVGQGTHLGHLFSAHDSLFFANCQGENGEACAVFAGPYTVSMHK | not soluble
MSLKKTVSLCDITITQMLEEDSNQGHLIGDFSKVCALPTVSGKHQDLKYVNPETVAALLSGKFQGLIEKFYVIDCRYPYEYLGGHIQGALNLYSQEELFNFFLKKPIVPLDTQKRIIIVFHCEFSSERGPRMCRCLREEDRSLNQYPALYYPELYILKGGYRDFFPEYMELCEPQSYCPMHHQDHKTELLRCRSQSKVQEEGHHHHHH | soluble
MQNQYFTVQENYKERFYQIPKVFFTSENYKNLTNDMKIAYAILRDRLNLSIKNSWVDEDGNIYFVYSNEKLMEILNCKKEKLTKIKKGLENDGLLIQKRRGLNKPNILYLMKPIVTERDIYKIEKEENDVEPYGEKEVRKSNVQKFENRTSRSSKIERPEVRKSNTNDTDFNDIDFNDTENNDMNDLNDIKYKNEISNHSNHSNQFTHNFDDKEMLLQEFPEQLTNYLLKYDYRDLEIIKAVILKAKKSFNSRHEDMHYMLEDIEDEILTSLKRLKKAIHDRGVKGQKETIKSMQAYLMQTILTELEETHALYMRRKNMKQYNIFNQ | soluble
MDLNVKQSGIHSVALHTTYFQNRSGKVYKRAEERYLRNDLSCGLAQCGTCKDFGTNPLLKIENPVRNAKVGRHALIVDSTSLIRFYDLFDSSLLRDLIVTQTVWEGVKAKAVPAYKKMNSLCYEDAKDRFHVFMNEFHCETFSESSKFEDLSRGEELLLSTALYLKTHWQKHNVAPVVLVFDEDSKKRMENHYQHVMYLKEYIQNLEDPGKQALLDQMAAYESSGNGNEKQIFDEYLSHDRIMEGIASGTIKRGNFSVSRENYREATVIIDDQLTSWFITGNNCNRAVNGDTVAVQLLPEDQWTAPEKKIRLRDVEEYVKTADDMGNEDEENDDENDEPKAKKSKKMTVSTAKVVGIIKRNWREYCGMLLPSTVKGARRHLFCPAERLIPRIRIETEQAETLSQQRIVVAIDHWPRDSKYPLGHYVRSIGEMGSRETENEVLLLEHDIPHAPFSESVLDCLPREEWEPDLTENRGPLPRVDLRDLTICSVDPLGCTDIDDALHCKQIGEDLFEVGVHIADVTHFVRPGTAIDDEAALRGTTVYLCDRRIDMLPCLLSSNLCSLRGEEERYAFSCIWTMTSSADIQSVKYHKSLIKSKAALTYEKAQEIIDDPKEQNDVALGLRGLMKLSKVLNARRTGNGALTLASSEVRFDMDWESRTPKKVMEKQHLDTHSMVEEFMLLANISVAEKILEEYPDCALLRRHPVPLKESYKPLVEAARHRGFEIIVESGKGLADSLNRCVDKKNPMLNRLLRMLTTRCMTQAVYFSAGKDGFSDIKLEEKKFFVLKTLNLPYRSCLCDDTETSIHLSRGLNDYFLFKKEKLHMSVGVLFKLFDCLGTVPVPQYQHFGLACAIYTHFTSPIRRYADVIVHRLLAAAIGADDIQSGLLNQARCTKICTNINYRHKQAQYAGRASVQLNVVRYFKGKVETCEGFVMGVRNNGIQVFVPKYGLESIIVLQTSAASGTTIDVEEMSVKVNGDVVIKELEPVTVRISVNEKNQQRPRVELQLIKPAIPGLSVDFDLSSSEGLGL | not soluble
MGSDKIHHHHHHMSEVYRQNPKVEAIILAGSVARKLEDEHSDIELHILWSMPPEDEDRKGPINYIGGTILSYHPYEEEEWSETYLTKEGIKLEISNFLTETVEKVIEDVVVQYDISYEKQCIVSSIHDGASLYGEEKVHELKDRVLAYPEDLAKRMISENLWLSNRWHNREALLKRKDWLMLYDVICEAQRNIFGVLFGLNKMYVHHPAFKWMPYNVERMIIKPENLYERMTNTLIGKPEYSIQELGVLIEELLQLVEHHAPELHIAEQQKRIQYAK | not soluble
